Laboratory results taken from patent US20250043290A1, “RNA SEQUENCES THAT INDUCE FLUORESCENCE OF SMALL MOLECULE FLUOROPHORES, MOLECULAR COMPLEXES, SENSORS, AND METHODS OF USE THEREOF” (CORNELL UNIVERSITY, priority 2021, published 2025).
Entries after “also recorded” stand apart in the source; their conditions may differ.

What was measured:
[1] = Dissociation constant of RNA-fluorophore complex, titration with DFHBI-1T; format: binding; conditions: 50 nM RNA, one-site saturation model
Description: FIGS. 7A-7H provide photophysical and biophysical characterization of Squash. […] Excess RNA was used to ensure binding of nearly all fluorophore. […] Data represent mean values±s.d. for n=3 independent experiments. […] The fluorescence signal trace was fitted with a monoexponential curve to extract kobs. kobs was plotted as a function of total RNA (50 nM RNA) and fluorophore concentration. kon and koff were extracted as the slope and intercept, respectively. Squash koff (0.014±0.008 s^−1) is very similar to that of Corn (0.018±0.002 s^−1). kon for Squash-DFHO (162300±8100 M^−1 s^−1) is seven-times higher than Corn-DFHO (23000±3000 M^−1 s^−1) which could be due to the high folding of Squash. […]
Dissociation constants (Kd) for the RNA-fluorophore complexes were determined as described previously (Paige et al., “RNA Mimics of Green Fluorescent Protein,” Science 333:642-646 (2011) and Filonov et al., “Broccoli: Rapid Selection of an RNA Mimic of Green Fluorescent Protein by Fluorescence-Based Selection and Directed Evolution,” J. Am. Chem. Soc. 136: 16299-16308 (2014), which are hereby incorporated by reference in their entirety). In brief, the RNA aptamer at a fixed concentration (50 nM) was titrated with increasing fluorophore concentration and the resulting increase in fluorescence was recorded. […]

[2] = Dissociation constant of RNA-fluorophore complex, titration with DFHO; format: binding; conditions: 50 nM RNA, one-site saturation model
From the text: FIG. 2A is a schematic showing the secondary structure of Squash as predicted by mFOLD (Squash: 5′-GGCUACAAGGUGAGCCCAAUAAUACGGUUUGGGUUAGGAUAGGAAGUAGAGCCGUAAACUCUCUAAGCGGUAGUC-3′ (SEQ ID NO:1)). Squash retained the main structural elements of add A-riboswitch aptamer including a 3-way junction and predicted kissing loop interactions (residues at positions 30, 31, 56, and 57, solid gray line). An additional base pair in the kissing loop between loop L2 and L3 (residues at positions 29 and 58, dotted gray line) improved fluorescence activation. […] Shown are the excitation (Ex) and emission (Em) spectra of Squash bound to DFHBI-1T and DFHO (structures shown in inset). Spectra were measured using 20 μM RNA and 2 μM of the indicated fluorogenic dye. […] Fluorescence activation was measured by incubating 200 nM dye and 10 μM RNA. By using a large excess of RNA compared to the fluorophore, it was ensured that the fluorescence observed is from 200 nM RNA-fluorophore complex. Data represent mean values±s.d. for n=3 independent experiments. The values inside the bars indicate fold activation. AU, arbitrary units. […] FIG. 2E is a bar graph showing the results of an experiment in which Squash-DFHO fluorescence was measured in buffers containing exclusively the indicated cations. […]

[3] = Photophysical properties of fluorophores and RNA-fluorophore complexes (Squash study); format: physicochemical
Procedure, shortened: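 Gel-purified RNAs in 40 mM HEPES-KOH pH 7.4, 100 mM KCl, 0.5 mM MgCl2, with RNA in excess over fluorophore for absorption, excitation and emission spectra. Quantum yields used 10 μM RNA and 0.2 μM fluorophore, from integrated emission versus Broccoli-DFHBI-1T or Corn-DFHO.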

In vitro folding of RNAs = format: physicochemical; conditions: 40 mM HEPES-KOH (pH 7.4), 100 mM KCl, 0.5 mM MgCl2
Description: Briefly, the fluorescence intensities of two solutions were compared: one having excess fluorophore and limiting RNA, and the other with excess RNA and limiting fluorophore. This allows calculation of the percent of the aptamer that is folded. For these experiments, 0.2 μM of fluorophore (or RNA) and 10 μM of RNA (or fluorophore) was used. The signal from the limiting RNA condition was divided by the signal from the limiting fluorophore condition to determine the fraction folded.
To prepare this complex, 10 μM Squash is incubated with 0.2 μM DFHO. By having large excess of Squash, there is likely to be enough folded Squash to form 0.2 μM Squash-DFHO complex. Next, 0.2 μM Squash is incubated with excess (10 μM) DFHO.

[4] = Potassium-dependence assay; format: physicochemical; conditions: buffers with K+, Na+ or Li+
Description: For potassium-dependence assay, separate buffers were prepared for K^+, Na^+ and Li^+. HEPES solution was neutralized with KOH, NaOH or LiOH to generate a 1 M solution (pH 7.4). RNA (1 μM final) was diluted in a buffer containing 40 mM HEPES (pH 7.4) and 0.5 mM MgCl2. Then the salts (KCl, NaCl or LiCl) were added to a final concentration of 100 mM to the corresponding solutions. Finally, DFHBI-1T or DFHO was added to the RNA solution at a final concentration of 10 μM and incubated for 20 minutes. The fluorescence was measured on a FluoroMax-4 fluorimeter.

B1: Squash: fluorogenic RNA aptamer evolved from the add A-riboswitch aptamer, binds DFHBI-1T and DFHO; SEQ ID NO: 12 (SEQ ID NO: 1) (nucleic acid)
chain: AGGUGAGCCCAAUAAUACGGUUUGGGUUAGGAUAGGAAGUAGAGCCGUAAACUCUCUAAGCG
modifications: RNA, backbone not given here
[1]
  Kd: 45 nM
[2]
  Kd: 54 nM
[3]
  Quantum yield with DFHBI-1T: 0.71
  Quantum yield with DFHO: 0.60
[3]; 10 μM RNA, 1 μM DFHO
  Emission maxima with DFHO: 562 nm
[3]; 50 μM RNA, 5 μM DFHBI-1T
  Abs max in complex with DFHBI-1T: 450 nm
In vitro folding of RNAs
  % folded in vitro: approximately 80%
[4]
  Fluorescence dependence on K+: fluorescent in K^+-free buffers; also recorded: not dependent on potassium
